Laboratory results as given in US20180011102A1 (University of Texas, published 2018).

T1: SFB-PGK1 Δ1-57 (human, UniProt P00558 58-417)
T1 construct: also called PGK1 Δ1-57 mutant; not shown: C-terminal SFB (S-Flag-Biotin) tag and any linker or added start Met of the pcDNA6/SFB construct
T1 sequence: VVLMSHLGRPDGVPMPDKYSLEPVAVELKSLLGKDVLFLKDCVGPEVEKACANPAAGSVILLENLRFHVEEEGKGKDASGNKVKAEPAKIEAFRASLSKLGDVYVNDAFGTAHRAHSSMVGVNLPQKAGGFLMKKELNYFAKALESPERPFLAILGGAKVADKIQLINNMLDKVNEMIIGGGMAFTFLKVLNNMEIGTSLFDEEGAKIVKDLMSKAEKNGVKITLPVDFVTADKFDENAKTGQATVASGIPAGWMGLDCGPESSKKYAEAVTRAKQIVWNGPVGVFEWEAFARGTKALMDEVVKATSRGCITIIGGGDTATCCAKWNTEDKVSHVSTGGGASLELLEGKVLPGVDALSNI

T2: SFB-PGK1 R39/K41A (human, UniProt P00558 1-417)
T2 construct: not shown: SFB (S-Flag-Biotin) tag, pcDNA6/SFB vector
T2 sequence (looked up): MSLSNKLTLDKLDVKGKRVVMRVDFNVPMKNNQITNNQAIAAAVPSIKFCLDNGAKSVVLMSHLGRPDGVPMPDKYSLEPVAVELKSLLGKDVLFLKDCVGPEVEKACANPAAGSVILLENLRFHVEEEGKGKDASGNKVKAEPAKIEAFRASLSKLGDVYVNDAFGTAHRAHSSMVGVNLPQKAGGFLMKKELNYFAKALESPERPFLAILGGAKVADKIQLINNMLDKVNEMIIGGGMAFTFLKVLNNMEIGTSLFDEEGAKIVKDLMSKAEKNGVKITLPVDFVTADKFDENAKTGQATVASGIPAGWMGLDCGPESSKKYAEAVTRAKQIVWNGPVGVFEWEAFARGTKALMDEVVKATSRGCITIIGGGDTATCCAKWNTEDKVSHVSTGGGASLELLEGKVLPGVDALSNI

B1: endogenous TOM20 of U87 cells (receptor, human, UniProt Q15388 1-145, looked up)
chain: MVGRNSAIAAGVCGALFIGYCIYFDRKRRSDPNFKNRLRERRKKQKLAKERAGLSKLPDLKDAEAVQKFFLEEIQLGEELLAQGEYEKGVDHLTNAIAVCGQPQQLLQVLQQTLPPPVFQMLLTKLPTISQRIVSAQSLAEDDVE
B2: SFB-PDHK3 expressed in U87 cells (enzyme)
chain: not shown
notes: not shown: SFB tag, pcDNA6/SFB vector
B3: endogenous PDHK1 of U87 cell mitochondria (enzyme)
chain: not shown
notes: also called pyruvate dehydrogenase kinase 1
B4: SFB-PDHK4 expressed in U87 cells (enzyme)
chain: not shown
notes: as for B2
B5: endogenous PGK1 (phosphoglycerate kinase 1) of U87 human GBM cells (enzyme)
chain: SLSNKLTLDKLDVKGKRVVMRVDFNVPMKNNQITNNQRIKAAVPSIKFCLDNGAKSVVLMSHLGRPDGVPMPDKYSLEPVAVELKSLLGKDVLFLKDCVGPEVEKACANPAAGSVILLENLRFHVEEEGKGKDASGNKVKAEPAKIEAFRASLSKLGDVYVNDAFGTAHRAHSSMVGVNLPQKAGGFLMKKELNYFAKALESPERPFLAILGGAKVADKIQLINNMLDKVNEMIIGGGMAFTFLKVLNNMEIGTSLFDEEGAKIVKDLMSKAEKNGVKITLPVDFVTADKFDENAKTGQATVASGIPAGWMGLDCGPESSKKYAEAVTRAKQIVWNGPVGVFEWEAFARGTKALMDEVVKATSRGCITIIGGGDTATCCAKWNTEDKVSHVSTGGGASLELLEGKVLPGVDALSNI
notes: Endogenous protein from cell lysates

Experiments:
SFB-PGK1 Δ1-57 = molecular target: T1, SFB-PGK1 Δ1-57; experiment: streptavidin pull-down from U87 cells (FIG. 3D)
Experimental: (§1) FIGS. 3A-G. Immunoblotting and immunoprecipitation analyses were carried out using antibodies against the indicated proteins. […] FIGS. 3D-E. U87 cells expressing the indicated SFB-tagged PGK1 proteins were treated with or without hypoxia for 6 h. Streptavidin agarose beads were used to pull down SFB-tagged proteins.

SFB-PGK1 R39/K41A = molecular target: T2, SFB-PGK1 R39/K41A; experiment: streptavidin pull-down from U87 cells (FIG. 3E)
Experimental: as §1

[1] = molecular target: B5; experiment: streptavidin pull-down from mitochondrial fractions of U87 cells (FIG. 14C)
Experimental: (§2) Immunoblotting analyses were performed with the indicated antibodies. […] Immunoblotting analyses were performed with the indicated antibodies. […] Immunoblotting analyses were performed with the indicated antibodies. […] ATP concentrations in mitoplast isolated from U87 or U251 cells treated with or without hypoxia for 6 h were measured. […] Mitochondria fractions of U87 cells treated with or without hypoxia for 6 h were immunodepleted with or without an anti-PDHK1 pT338 antibody. Immunoblotting analyses were performed with the indicated antibodies. […] U87 and U251 cells expressing PGK1 shRNA were reconstituted to express WT rPGK1 or rPGK1 T378P. Immunoblotting analyses were performed with the indicated antibodies. FIGS. 14M-N. U87 and U251 cells with PGK1 shRNA and with reconstituted expression of WT rPGK1 or rPGK1 T378P were stimulated with or without hypoxia for 6 h. Mitochondria fractions were prepared. Immunoblotting analyses were performed with the indicated antibodies. […] Data represent the means±SD of three independent experiments. Immunoblotting analyses were performed with an anti-PGK1 antibody. […] U87 cells were stimulated with or without hypoxia for 6 h. Immunoblotting analyses of mitochondrial lysates were performed with the indicated antibodies.

[2] = molecular target: B5; experiment: PGK1 immunoprecipitated from mitochondria of U87 cells, anti-PDHK1 immunoblot (FIG. 4B)
[3] = molecular target: SFB-PDHK2 expressed in U87 cells (human, UniProt Q15119 1-407); experiment: streptavidin pull-down from mitochondrial fractions of U87 cells (FIG. 14C)
Experimental: as §2

B1
binding result (SFB-PGK1 Δ1-57): no binding | binding result (SFB-PGK1 R39/K41A): no binding

B2
binding result [1]: no binding

B3
binding result [2]: binds

B4
binding result [1]: no binding

B5
binding result [3]: no binding
